Experimental data reported in publication doi:10.1101/2021.04.08.438961 (bioRxiv, 2021).
Positions count from the first letter of the chain named. Names may count otherwise. “And” between values parts separate entries of the source, which are not always exact repeats. Identical values can stand only once.

B1: MinD (natural protein)
chain: MARIIVVTSGKGGVGKTTSSAAIATGLAQKGKKTVVIDFDIGLRNLDLIMGCERRVVYDFVNVIQGDATLNQALIKDKRTENLYILPASQTRDKDALTREGVAKVLDDLKAMDFEFIVCDSPAGIETGALMALYFADEAIITTNPEVSSVRDSDRILGILASKSRRAENGEEPIKEHLLLTRYNPGRVSRGDMLSMEDVLEILRIKLVGVIPEDQSVLRASNQGEPVILDINADAGKAYADTVERLLGEERPFRFIEEEKKGFLKRLFGG
B2: MinD D40A (natural protein)
chain: B1 chain with D40A
B3: MinE (natural protein)
chain: MALLDFFLSRKKNTANIAKERLQIIVAERRRSDAEPHYLPQLRKDILEVICKYVQIDPEMVTVQLEQKDGDISILELNVTLPEAEELK

Tests used:
[1] = molecular target: the molecule itself; assay: mass-sensitive particle tracking
MinD = molecular target: B1; assay: mass-sensitive particle tracking

Binder	stoichiometry N [1]	binding result (MinD)
B1	2 and > 2 and 3 and 4	
B2	2 and 4	
B3		binds
